We go through one molecule from publication PMC4399976 (The Biochemical journal, 2015).

The target of the assay is wild-type (WT) proMMP-9 trimer (reduction-sensitive homomultimer) (human, UniProt P14780 20-707). The assay can be described thus: SPR. (In general: Surface plasmon resonance follows binding to a sensor surface in real time, without labels.)
Chain of wild-type (WT) proMMP-9 trimer (reduction-sensitive homomultimer) (P14780 20-707): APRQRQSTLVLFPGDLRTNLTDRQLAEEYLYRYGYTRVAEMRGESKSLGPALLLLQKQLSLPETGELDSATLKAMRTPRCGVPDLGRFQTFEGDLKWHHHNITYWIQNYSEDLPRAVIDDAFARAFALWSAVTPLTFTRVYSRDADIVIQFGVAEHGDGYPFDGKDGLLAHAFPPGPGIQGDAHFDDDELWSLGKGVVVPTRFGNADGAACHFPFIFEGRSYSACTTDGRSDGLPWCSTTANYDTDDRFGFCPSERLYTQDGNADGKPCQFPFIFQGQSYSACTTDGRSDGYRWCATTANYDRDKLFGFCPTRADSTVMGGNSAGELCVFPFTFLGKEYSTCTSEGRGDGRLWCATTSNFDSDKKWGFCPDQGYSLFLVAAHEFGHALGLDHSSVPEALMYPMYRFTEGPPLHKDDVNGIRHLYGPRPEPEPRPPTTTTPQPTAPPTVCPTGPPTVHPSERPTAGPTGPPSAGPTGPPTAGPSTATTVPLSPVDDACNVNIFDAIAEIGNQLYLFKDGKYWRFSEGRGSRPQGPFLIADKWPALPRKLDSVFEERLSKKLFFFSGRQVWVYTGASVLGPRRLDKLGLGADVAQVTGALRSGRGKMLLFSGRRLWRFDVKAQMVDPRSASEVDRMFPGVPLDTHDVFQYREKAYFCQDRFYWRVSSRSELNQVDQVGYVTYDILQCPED

B1: tissue inhibitor of metalloproteinases-1 (TIMP-1), recombinant human (natural protein)
chain: not shown
The term Kd denotes the equilibrium constant for the complex coming apart. Consider B1, for which binding was characterised by a dissociation constant (Kd) of 0.4 nM.
